One block for each substance: values may come before it.
Columns and labels:
Assay in all cases: single-filament TIRF microscopy of microtubule growth
[1] = target: recombinant α/βIIB tubulin heterodimer (human) (UniProt P68363)
[2] = target: recombinant α/βIIB-tail-III tubulin heterodimer (human) (UniProt P68363)
[3] = target: recombinant α/βIII-tail-IIB tubulin heterodimer (human) (UniProt P68363)

koff [1]: 2.6 s⁻¹ | kon [1]: 1.9e+06 M⁻¹ s⁻¹
Substance: recombinant α/βIIB tubulin heterodimer (from UniProt P68363-1 1-451; Q9BVA1 1-445) (complex)

koff [2]: 5.5 s⁻¹ | kon [2]: 2e+06 M⁻¹ s⁻¹
Substance: recombinant α/βIIB-tail-III tubulin heterodimer (from UniProt P68363-1 1-451; Q9BVA1 1-427; Q13509 428-450) (complex)

koff [3]: 2.4 s⁻¹ | kon [3]: 1.8e+06 M⁻¹ s⁻¹
Substance: recombinant α/βIII-tail-IIB tubulin heterodimer (from UniProt P68363-1 1-451; Q13509 1-427; Q9BVA1 428-445) (complex)

Reference: paper PMC4878094
